These results are taken from publication PMC6412629, “β-Galactosidase from Lactobacillus helveticus DSM 20075: Biochemical Characterization and Recombinant Expression for Applications in Dairy Industry” (International Journal of Molecular Sciences, 2019).

Substrate in this data set: O=[N+]([O-])c1ccccc1O[C@@H]1O[C@H](CO)[C@H](O)[C@H](O)[C@H]1O
In words: purified protein. Particulars: 50 mM sodium phosphate pH 6.5, 30 °C, oNPG 0.5-22 mM, substrate inhibition seen. In kind it is biochemical, Lactobacillus helveticus.

B1: recombinant β-galactosidase from L. helveticus (EcoliBL21Lhβ-gal), LacLM (Lactobacillus helveticus; Q7WTB4:Q2E) (protein)
chain 1: MEANINWLDNPEVFRVNQLPAHSDHPFFRDYREWQKQHSSYQQSLNGKWKFHFSANPMDRPQDFYQRDFDSSNFDSIPVPSEIELSNYTQNQYINVLFPWEGKIFRRPAYALDPNDHEEGSFSKGADNTVGSYLKRFDLSSALIGKDVHIKFEGVEQAMYVWLNGHFVGYAEDSFTPSEFDLTPYIQDKDNLLAVEVFKHSTASWLEDQDMFRFSGIFRSVELLGIPATHLMDMDLKPRVADNYQDGIFNLKLHFIGKKAGSFHLLVKDIKGHTLLEKNEDIKENVQINNEKFENVHLWNNHDPYLYQLLIEVYDEQQNLLELIPFQFGFRRIEISPEKVVLLNGKRLIINGVNRHEWDAKRGRSITMSDMTTDINTFKENNINAVRTCHYPNQIPWYYLCDQNGIYVMAENNLESHGTWQKMGEIEPSDNVPGSIPQWKEAVIDRARINYETFKNHTSILFWSLGNESYAGDNIIAMNEFYKSHDDTRLVHYEGVVHRPELKDKISDVESCMYLPPKKVEEYLQNDPPKPFMECEYMHDMGNSDGGMGSYIKLLDKYPQYFGGFIWDFIDQALLVHDEISGHDVLRYGGDFDDRHSDYEFSGDGLMFADRTPKPAMQEVRYYYGLHK
chain 2: MDYTNNQLHIIYGDATLGVNGKDFQYIFSYERGGLESLKVHGKEWLYRVPTPTFWRATTDNDRGSGFNLKAAQWLGADMFTKCTDIHLKVDRHDFAELPIAPFNNKFSNHEYAKSAEISFTYQTLTTPATNAKIIYNIDDVGHIKVTMRYYGKKGLPPLPVIGIRLIMPTAATGFDYEGLSGETYPDRMAGAKEGKFHIDGLPVTEYLVPQENGMHMQTKKLTINRETTQNNVDRTNEKFSLSIQQAEKPFNFSCLPYTAEELENATHIEELPLVRRTVLVIAGAVRGVGGIDSWGTDVESAYHINPELDHEFSFILN
notes: overlapping lacLM genes in pET-21d(+) (NcoI/XhoI); C-terminal His-tag (vector), follows lacM end; E. coli BL21 Star (DE3), HisTrap purified; heterodimer ~109 kDa
Regarding B1, the Km is 1.40 ± 0.30 mM, the Vmax was 476 µmol/min/mg, the kcat came out at 865 ± 120 s⁻¹ and the kcat/Km was determined as 618000 M⁻¹ s⁻¹.
